Results: the NTF2 design screens of Basanta et al. (2020)

test: protease stability score; higher = more stable; yeast display proteolysis, trypsin and chymotrypsin;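 also: relative to predicted unfolded state with 0 unfolded-like and 1 meaning tenfold more protease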

| Sequence | protease stability score |
| --- | --- |
| DELDKRTREFTRLFLEWEETGDFHTMLNFLDPNARVDVNGVHLIGREKMVEHFLTEHERIDHREWHLRRIHYYDGRSDIDGHITLFVDGQEIHIRVHVIFFVVDGRMHMVEKRII | 0.751 |
| DEDSEQARKFTELLFESIRTGDWKSLERLFDPNTRLEVGEFEHHGMEEATKFLIELRLEDFHIHSTKIDIQGEWIHIRLDGVERGYIGDKKRDTRSHIRLDNLKINGRWINQRLIIEIR | 1.13 |
| DEDFRDAKHMWELYLELIHTGDEERLRKLMDPNVRVEVGDKELHGRHHYIKWVREMRMRIEDVRIRTVRNINGVVHIHGELRGEYVYGDKRVHFETEVELVLLKVNGRWKIHEEHIH | 1.75 |
| DEEEQEFREFMKHVLEMIRTGDEDQWRKLMDPDARLIVDGKDIHGREEVVRLWSEITRHARFRDRKIHSMEIQGDKVRVDGRVLGEFNGVDRQTESHIIFHKINGRWKIHQEFIV | 0.882 |
| SEDREFMKTDLERWRHDLLTGDEESSHRLADPHVRVYIGDKEFIGREELRRVLREFIERFKGARIEVRLRSLHLIDGRMHIDTEWHIHVGEKHIMLDIKINQDKVNGRWELRNEVIS | 1.11 |
| SEEEHHVVRMMELLIDLLMTGDEEVFDSLVDPDVKSNINGVHSVGMESINEIFRRYVDFFKNVKVDVHLRDREAQGDKHITYGVRIERFDGKQFTIDTRLELKVVNGRIKDVKVDIK | 1.46 |
| SNEQKEFELLLRLMKEIIETGDEENFHRMVDPHARLQVGDKHHHGREEMSRWFEEFTKRFKNAKVHIDHVDSVDGQLHIDTTLIFDGVERRVEIIVRKVDGKWILEEVRII | 1.08 |
| DEDDELAERFFRFWLEFVLTGDEDSSSHLLDPDVRTKYNGVDFHGMESHSKLLLELRIKDFRFTRIRIINGRLEIHGRMHQEIDGKKVDTTVTIDSIKINGKWRVKTINIG | 1.73 |
| TEEEKFAEEMLRRFIENLITGDWRELKKLFDPDTKIVFNGREHHGMEWHIEFLREIRITHIEVRDMTLINGVAHANGHEIIIIGDKTLEMDTRINIVTINGRIHSIEIKQR | 2.54 |
| EEEQEDSEWATKLFIEVLETGDEHTSEHLADPDTRVEFNGKILHGREEWNKIVRKVKNARIHFDHIRVQGDKINVDTTVEVDGKRMKFHIISRKFNGVWFLQSIHIK | 2.07 |
| HEVERIVEESDRHLLNSMLTGNEDELWRLLDPNARLDINGVQSIGRDEAYRVFHELLNHLRLREVDVHEMDVQGDKAHLTFKFNGDFNGKRDYLDFQVNSLKINGRWFLHSSSLI | 0.529 |
| SELDEDFRHMVELFAFHMLTGDEHEVHRLADPHYRYEQGDKNIIGRDEWIRFLREIRIHVNSIHIRRLDYVGDKIEADVHFDVLIHVNGVRIRHRHDSHLFWEKVDGRWVLHSVRVL | 1.36 |
| DSLHEKVEIMAHLLVEIIRTGNEEDWRRYVDPNVRIRIGDKDLHGREEAFRVVREIRIIVHDIKIRSLDVQGDKVESDVEVDVEFRIGDKVNRIHTRFRLIWTKVDGRWINESMSIE | 2.61 |
| DERKEHSIKVAKNIFNDILTGDEDRMKEMMDPDVKLHIGDKDVIGRENVIKFMIEEWNHIRFEDFKHKDVRVQGDKAILEGHINVEYGDKHRNVDSRYLVFVIDGRIKSIEIRLH | 1.39 |
| SEEEEIMQRLLELMLQVFKTGDWKSLTDLLDPHVRLRIHQGDKTLHHHGREEFTERLRKLDEHLGVSRIDVRDHDMHEINGVLIIHLELRVNGRKVHVLILAEKIDGRWLLKSMHLVWH | 1.42 |
| EEEKKETEHWIETFYRIINTGDEETWSKMADPDMRLEVLIDGKKLELHGRDAFEDFVSKMGFDHVHIHDMEVIGEKAHIHTELRYGDKHIRFEIQLVVVNGRYKSVTIRRK | 1.75 |
| SEDEEQAERFARELIEVLRTGNEELLTHLLDPNTMLRVNGVEHHGREAYLHYTREMRYHHIDIEHFDVQGDKLYLHNRMDGQVDGRRVDVRIRIQVEKVNGRWKLRQERHQ | 0.524 |
| EEDSEMAREISESILRMIKTGDERHFMRLLDPHVKIDINGREHHGRHAATHQLRETSEKFGFDRITVRLESVHVQGEYVNINGRVEQGDFHLTLHFHFRKIDGRWVMDSVHIV | 0.559 |
| DERDEHSRHVAELWLQSMETGDWEHDRRLLDPNMKFEAPNHSLHGRDSYVETMRKIKNLVIHDTKIEHYEVQGDKAHVQMRIDVIVGDKRTWVEVRVEIVVVDGVLHSLRIEIE | 0.777 |
| DEEKKSSDIAIHESLRVLKTGDEHDISEMMDPHVRIDINGREIIGMELASEIHHEIMNRIKNVRIEVKDRKLVNGQIILRGELRWNGQTVELEVTLKKINGKWWMESLHVR | 0.606 |
| DEEEEKDRILVEIWKRLVLTGDEEELLNLADPEARQTVHFNGKEVRNVGMERVIEHNREYLRLMGVDHITVDRSRVVNGRVENHHRVFVGEKEIRFEIEVTIINGRLRSVTIRVR | 0.379 |
| DKEEELSEIAHKIWIHELHTGDFESLEKNMDPHARIIQGDWHYHGRESVYHVFSRIVRMLGVKHIEIHSMEVINGQVHLDTRLHAEGHSRNTHVFFVKINGRWLSKEFEIK | 0.711 |
| SEQDEMAEKWVHMFLHSWFTGDEDFFETLLDPNVQLIVNGKHHHGREDVKRFLHEEYRRIDHIEDFHLRRLEIQGDFARLDGEVIMIVNGRRHEFRVEIRLFIVNGKMRSIEINEE | 2.23 |
| DEDRRDIDDFLRLMLEATHTGDFKSFLELADPNMRIQIGDKEMVGRENIERWFEEDHRQAGIQRVETELRVRSKLLIGNKMHVDIEIRRRYNGVEEVYDVELILLKYNGVWWLEEFRVR | 1.58 |
| TEDEELAKLVSEILLHIMETGDEDKLSKMADPHVRVNINGRERHGWRNMVRVLHETIRNLGIEIKSVHIRDLKIQGDKIRVTMEIDYQQGDKRNEWSSHLIIIKIDGRWHLHAFELN | 1.26 |

| Sequence | protease stability score |
| --- | --- |
| LEFEEHLHRWVNFYLNVHRTGDEEHIEKLADPDMRIEVGDKELHGRERAYEFWRRYLEEARLHDMKIRSVELVGDKIILDTEIHSIVGDKHIRERLEIILTKINGRWMLKSMRVQ | 1.45 |
| TELDELALKLLEQLIELEATGDWKTLLKLFDPNTRVDIEVGDKKIRLHGREDVIEWVKTVYEHLRFEIRIHSSDAIDGRVHVSTKLIIRIDGRTIEVETHLRVIMIDGKIHEVNTHVH | 1.43 |
| DDIEETFRHYLDQWIRDLRTGDEEALYRLADPNARHKINGQHLHGRELHDHEFNRIKNLKVDFVTRDIRIIGDKLIIHGEMIIRINGRQISIDTEIYLRKIDGRWFVEQVNVG | 0.305 |
| TEEEHNVRIALSLYIETFKTGNEEVLRRRLDPNARLIFNGRDLHGRELIEDWIHEFHEKVPGLQIHRHEVKDWHVQGNKIDLDVHIDGVFDGKQTETRVILHILKVDGQWIMTVIEIR | 1.35 |
| SEEEEHSKFLAEILLELMRTGDWRTFEELVDPNARLEIIQGDFTIDIHGREEVSKFLKNEVEQFKNMRVELHRQSAQGNKLHIDGRLKVGDKSHELRIHINVINGKLKQVKIEID | 1.72 |
| TEEDEELKRWFDHFLESMITGDEHQNTELFDPNVLIHINGRQLHGRESAKIFIKEIRYEEIEVTHVRKYGNYVISSGVVRVRINGQESTIKTEVIVLKVNGQWLIRFVRFE | 2.26 |
| SEDKELAERLYHLLLRTLITGDEKQLIDNMDPDARVHVGDKHRHGMEWMNRYLHELRIRDQDDKDIRLQGNKVHVDGHVRGNINGQEIDYRFHIELITINGVVHMINIQIR | 0.945 |
| NDLEERTKKAAEELREMHKTGDEELWLKNMDPNVRLEIIIGDKLLIFHGREKWREWFHKYKNARHEDNDEHVQGDKTRINVHIVFNGRRVDVEITLRVIDGRVHSEHINII | 1.45 |
| DEEEEIARKYITLLVKSFLTGDERSIERLVDPHYRHDVGDKHVHGRERFTRHIYENLIRVKGIRVEVIVEHIRVINGRVEVDMQIHWKQGEFQILITSRMHVEKVDGRWLIREVEID | 0.976 |
| DEHEEHWREMFERWLFALITGDEETLHKLLDPNVKMDINGQHHVGREQVLHEFRKFHDVLGVKVSRNFHVKDKEVQGDKLHLTIEFRGEFNGKEEITQARIVIVKINGRWTIERVELE | 1.97 |
| DEHDERMESVLRHLWHNWKTGDEDRLAELADPNTRTNINGKNFHGWEYMVREFSRFLKHIRIQDLKIRDFRVIDGRAISDVIVHGEVDGKDIDVKTRVELIIINGRFHTLSFTFE | 1.3 |
| DEKEKDFHHMLEDWRWATRTGDEDTLKDLMDPNAKVRYGDYEFHGREHVIQFYQQIRFHEIHVHHVRVIGNKLEADTRVRIEYNGRELSFETHLVLLKIDGKWVMKIHEID | 2.13 |
| DEFTELTREVLHRIVTHLRTGNEEELARLMDPNARLEINGKEFHGREEILRLIHELEKKMGIKHVDMVIRRDTIIGDYARVNGEIIIIVDGKEIRLDTEIFILKIDGKWFIRTESIR | 1.21 |
| DEIEHLIRRIMEEIVHVFETGDEEKLEELMDPNTIFIIGDKRYVGREAVDVLLRRADVMTRFHIKSMRTVGDKIDLNTSIHVHFDGVHREIDTHVIARKVDGRWHWDSVRVE | 1.2 |
| SEESEHEEIIAEVTLELLATGDWRTLYELFDPNVRVHVGDKRSIGREQFVKIWKEFLEKFKNVVYKFKDIKWINGVVHIHMTLEYNGRRIEVNIHNFVYDGKIEHIHIEFKHL | 1.66 |
| DEDTHDTKKAVEEFIHTVRTGDEHSLRRQLDPNARVEVGDKEQHGRLFIEWFIRMLGIDNVDVRVHDHHVYDGRVEVDLLLHVDGRDFRVNIVWDKINGQWRNRMVIFR | 1.17 |
| SEEEEIVRHANHLFTHAMNTGDWRLLKELFDPHTKILIDGQEHHGWSIIYRELRHIRIDHVEMRIRSVHTQGNKAHVDGEIIVEGTVNGVTHKTSNRVNLIIRKVDGRWIVESIDIH | 1.55 |
| SEEEEEVHKFMEDLARAYLTGDEKRFRELVDPNVKSNIDGQTIHGREELTKWVSDSAKKYGVDHLEMRVRTINIQGNKAHMDGEIVLEYGDKRVSRQVEIVVTKINGQWLLEREHIH | 1.88 |
| SQDKETSDEAFRIWVESYETGNEHLEEHMVDPNARSRVGDKELIGMEHFIKIMEKIKNATLEIRHRSYTEIDGRLRWHTQLYIEYGDKRIEREIIIIVHKVNGRWSIEHFEVR | 0.973 |
| DEEKKAIRKVWELVIHSLVTGDEDSVEKLLDPHVRVHINGVHLHGMETFRHTFHEWRLEIKSVHIQDMDSINGVARLDISFVGRFKFDGRVEETIIDIHLVVNKINGRWVIEEQKFE | 1.48 |
| TEDLHQYHEFLEEMIRWLRTGDWEAKHRNADPNVRLDFNGVDFHGMEIVAKIEMELRRRVDHIELEVKRSEIVNGRVHIDQVYHIEYNGRSYEVKSELIVKKVNGKWLIKEERVR | 0.322 |
| DEDERHMEKMWRDWVHARYTGDEHRLDELFDPDARMLIDGVDAVGREEVHRLLHKMLKRLGIKHIEHVRITHIEIQGDKIHIENEIRGIVGDKTTTVEVHLVIIKVDGQWRIRSVEEK | 1.14 |
| DEQETHNNNILERLIRILHTGDEHIYEHLFDPHARLHIGDKRFHGREELSRWLRRLGVRWEHFIERDVEVQGEKLRIEGERTVHIDGVRHHHRTEIIIIVIDGKIKSYEERHV | 0.572 |
| SEEQHHVEKVLWDFSHALMTGDWETVEDLVDPNVRIHINGKDFHGREEFHRLVREIRVHVEINLKSVEHIDGQATADTDVIVHLDVGDKQIDRRTRTEVIQQKFDGKWLIHTIIHR | 0.956 |
| SEKEKLMHDIIEKYMRNLETGNEEEYAKLADPNTRLHYGNKHRVGWKEIVHTLRHWRIHIRDSEIDSIHNIDGQAFVKGKRKGEINVDGVNIDTTFDVDIIINVFDGRLKEIEIRIH | 0.068 |
